The test system of experiment [1] is ULK3. In words: In vitro kinase assay, autophosphorylation. The class given is biochemical, human. Conditions: FLAG-tagged protein immunopurified from HEK293 cells, γ-P32-ATP. As to the method: HEK293 cells were transfected with 13.5 μg of FLAG-tagged constructs expressed GLI1, GLI2, GLI3, ULK3, ULK3(K44R), ULK3(K139R) or FLAG-CMV-4 empty vector on 10 cm plates. The cells were lysed with 0.5 ml of Lysis Buffer (50 mM Tris HCl, pH 7.4, 150 mM NaCl, 1 mM EDTA, 1% Triton X-100) containing protease inhibitor cocktail (PIC) (Roche Applied Science). The lysates were centrifuged for 15 min at 4° C. and 15000 g, and the supernatants were used for immunoprecipitation (IP). IP was performed using anti-FLAG-M2 affinity gel (Sigma-Aldrich) in batch format according to the manufacture's instructions. Immune complexes were washed three times with 500 μl of Kinase Buffer (KB) (50 mM HEPES, pH 7.4, 20 mM MgCl2, 25 μM ATP) and resuspended in 12.5 μl of KB. One fifth of the immuno-complexes was subjected to WB and the rest was used for the kinase assay.
Kinase reactions were carried out in KB in a total volume of 20 μl of in the presence of 1 μCi of [γ-^32P]ATP per reaction. We used 1 μl of the immunoprecipitated ULK3, ULK3(K44R) or ULK3(K139R) mixed with 5 μl of the GLI-M2 immunocomplexes or 5 μl of bacterially expressed and purified His-GLI1 fragments. Kinase reactions were held at 30° C. for 30 min and terminated by adding of 5 μl of 4× Laemmli Sample Buffer. Proteins were resolved by SDS-PAGE. The gel was dried at 80° C. for 2 h, and autoradiography was performed using Bio-Rad Personal Molecular Imager FX.
To test if ULK3 has an autophosphorylation activity, we expressed FLAG-tagged wild-type ULK3 and mutants ULK3(K44R) and ULK3(K139R) in HEK293 cells, immunopurified and subjected to in vitro kinase assay in the presence of γ-P^32-ATP.

Experiment [2] has as its system GLI1GFP localization in NIH3T3 cells. In words: Immunofluorescence assay, subcellular localization of GFP-tagged GLI1. Conditions: coexpressed with GLI1GFP in NIH3T3 cells. Format: cell-based, mouse. As to the method: NIH3T3 cells were transfected with GLI1GFP and FLAG-tagged expression constructs for ULK3 or ULK3(K139R) in ratio 1:1 on 8-chamber slides (Falcon, BD Biosciences, San Jose Calif., USA). The cells were fixed with 4% paraformaldehyde and washed three times for 5 min with Stain Wash Medium (SWM) (0.5% BSA and 0.01% NaN3 in PBS). Subsequent permeabilization of cells was performed at RT by 10-min incubation in. PBS supplemented with 0.5% Triton X-100. Afterwards, the cells were washed three times for 5 min with SWM, blocked for 30 min in PBS containing 5% bovine serum albumin (BSA), and incubated with mouse monoclonal M2-anti-FLAG antibody (diluted 1:1000 in SWM) for 1 h at RT with gentle agitation. After three washes of 10 min with SWM, the cells were incubated for 30 min with secondary antibody Alexa-Fluor 568 (Invitrogen) (diluted 1:500 in SWM) mixed with nuclear stain Hoechst 33342 (diluted 1:100). Cells were washed twice with SWM and mounted with Mowiol 4-88 (Sigma-Aldrich). GLI1GFP protein localization was assessed in at least 200 FLAG-positive cells under a fluorescent microscope Olympus BX61 with UPLan SApo 40× objective, and the experiment was repeated three times. Confocal images were obtained with a Zeiss LSM-510 META confocal laser-scanning microscope (Carl Zeiss MicroImaging GmbH, Germany) equipped with Plan-Apochromat 63×/1.4 oil immersion objective.
Next we examined if overexpression of ULK3 kinase influences the subcellular localization of GLI1 and GLI2 proteins. […] FLAG-tagged ULK3 and ULK3(K139R) (or respective empty vector) were coexpressed with GFP-tagged GLI1 and GLI2 in NIH3T3 cells. Subcellular localization of GLI1 and GLI2 was determined, and average values were calculated from three independent experiments. ULK3 and its mutant remained almost completely cytoplasmic. GFP-tagged GLI2 localized predominantly in the nucleus and its localization was not altered by ULK3 or ULK3(K139R) (data not shown). Overexpressed GLI1GFP was detected both in cytoplasm and nucleus (FIG. 3A). […] Under the influence of ULK3 localization of GLI1 was shifted.

Experiment [3] deals with GLI1 in nuclear extracts of Cos1 cells. Kind of experiment: Cell fractionation analysis with WB. The following applies: cotransfected with FLAG-tagged GLI1 in Cos1 cells, lamin A/C loading control. Format: cell-based, primate. As to the method: Cos1 cells were transfected with FLAG-tagged expression constructs for GLI1 combined with ULK3, ULK3(K139R) or empty vector in ratio 1:1 on 10 cm plates. Nuclear and whole cell extracts (NE and WCE, respectively) were prepared as described in [36]. All extracts were normalized for protein amounts measured using […] kit (Thermo Scientific). A total 10 μg of protein were separated by SDS-PAGE and transferred to the PVDF membrane (Millipore, Billerica Mass., USA). The membrane was segmented according to the expected size of the detected proteins. Obtained strips were probed with the appropriate antibodies.
WB was performed using a non-blocking technique as described in [37]. Mouse monoclonal M2-anti-FLAG antibody (Sigma-Aldrich) was used for detection of FLAG-tagged GLI1, GLI2, GLI3, ULK3, ULK3(K44R) and ULK3(K139R) by WB in dilution 1:2000. Lamin A/C was detected with mouse monoclonal anti-Lamin A/C antibody (Upstate, Billerica Mass., USA) diluted 1:1000. Mouse monoclonal anti-His antibody (Novagen, Darmstadt, Germany) diluted 1:1500 was used for detection of bacterially expressed and purified GLI1 fragements. […]
To confirm the data from the immunofluorescent staining, we performed cell fractionation analysis. […] Expression of lamin A/C was analyzed as a loading control. ULK3 and ULK3(K139R) were detected mostly in WCEs.

B1: ULK3: human serine/threonine kinase, 472 amino acids (SEQ ID NO: 1), overexpressed from cloned cDNA or immunopurified FLAG-tagged (protein, listed as Homo sapiens)
chain: MAGPGWGPPRLDGFILTERLGSGTYATVYKAYAKKDTREVVAIKCVAKKSLNKASVENLLTEIEILKGIRHPHIVQLKDFQWDSDNIYLIMEFCAGGDLSRFIHTRRILPEKVARVFMQQLASALQFLHERNISHLDLKPQNILLSSLEKPHLKLADFGFAQHMSPWDEKHVLRGSPLYMAPEMVCQRQYDARVDLWSMGVILYEALFGQPPFASRSFSELEEKIRSNRVIELPLRPLLSRDCRDLLQRLLERDPSRRISFQDFFAHPWVDLEHMPSGESLGRATALVVQAVKKDQEGDSAAALSLYCKALDFFVPALHYEVDAQRKEAIKAKVGQYVSRAEELKAIVSSSNQALLRQGTSARDLLREMARDKPRLLAALEVASAAMAKEEAAGGEQDALDLYQHSLGELLLLLAAEPPGRRRELLHTEVQNLMARAEYLKEQVKMRESRWEADTLDKEGLSESVRSSCTLQ
modifications: PEPTIDE (1)..(472) ULK3
Take B1: the autophosphorylation activity entry in experiment [1] is on record as “strong autophosphorylation activity”. In experiment [2] (average of three experiments), the “cells that retained GLI1 in the cytoplasm” value is 2%, the “cells with GLI1 mostly in the nucleus” value was 70% and the “cells with uniform distribution of GLI1” value amounted to 25%. Also, the “amount of GLI1 in nuclear extracts” value in experiment [3] is given as “retained most of the GLI1 in the nuclei”.

B2: ULK3(K139R): kinase-deficient ULK3 mutant with Lysine at position 139 mutated to Arginine (SEQ ID NO:7) (protein)
chain: MAGPGWGPPRLDGFILTERLGSGTYATVYKAYAKKDTREVVAIKCVAKKSLNKASVENLLTEIEILKGIRHPHIVQLKDFQWDSDNIYLIMEFCAGGDLSRFIHTRRILPEKVARVFMQQLASALQFLHERNISHLDLRPQNILLSSLEKPHLKLADFGFAQHMSPWDEKHVLRGSPLYMAPEMVCQRQYDARVDLWSMGVILYEALFGQPPFASRSFSELEEKIRSNRVIELPLRPLLSRDCRDLLQRLLERDPSRRISFQDFFAHPWVDLEHMPSGESLGRATALVVQAVKKDQEGDSAAALSLYCKALDFFVPALHYEVDAQRKEAIKAKVGQYVSRAEELKAIVSSSNQALLRQGTSARDLLREMARDKPRLLAALEVASAAMAKEEAAGGEQDALDLYQHSLGELLLLLAAEPPGRRRELLHTEVQNLMARAEYLKEQVKMRESRWEADTLDKEGLSESVRSSCTLQ
modifications: MUTAGEN (1)..(472) mutated ULK3 protein ULK3 (K139R)
Take B2: the autophosphorylation activity result in experiment [1] is on record as “almost completely absent”. Besides, the “influence on GLI1 subcellular localization” value in experiment [2] is given as “did not influence”. Also, the “amount of GLI1 in nuclear extracts” value in experiment [3] was “significantly lower amounts of GLI1”.

Values taken from patent publication US20130040894A1, “INHIBITION OR ACTIVATION OF SERINE/THREONINE ULK3 KINASE ACTIVITY” (TALLINN UNIVERSITY OF TECHNOLOGY, priority 2009, published 2013).
